From patent publication US20260258127A1 (YING MAI DE MEDICAL TECHNOLOGY GUANGDONG, published 2026)

What was measured:
[1] = molecular target: T1, CD3 (antigen of the anti-CD3 antibody, coated in the ELISA of Examples 1-3) (Homo sapiens (Human), UniProt P07766 23-126); assay: ELISA, coated antigen, anti-human IgG-HRP; reference wild-type antibody
T1 construct: also called antibody antigen
Method: (§1) In the present invention, the activity of each mutant with a point mutation compared to that of its initial antibody is detected by ELISA. Specifically, the 96-well plates were coated with antibody antigen overnight, then blocked with 1% BSA blocking agent (Thermo Fisher) at 37° C. for 2 hours, and washed with PBST for 3 times. The corresponding antibody or the corresponding mutant was added for binding at 37° C. for 1 hour, and then washed with PBST for 3 times. HRP enzyme-linked anti-human IgG was added for binding at 37° C. for 1 hour, and washed with PBST for 3 times. TMB substrate (Solarbio., Inc.) was used to detect absorbance at 450 nm. The effect on mutant binding strength was calculated through EC50 mutation/EC50 wild-type.
According to the above method, the binding activity of anti-CD3 antibody SP34 mutant with mutations at different position shown in Table 1 was detected.

[2] = molecular target: T1, CD3 (antigen of the anti-CD3 antibody, …); assay: binding activity of the conjugated mutant compared with the wild-type antibody (ELISA as in Example 1)
Method: as §1

T1 sequence (P07766 23-126 limits assumed, form in doubt): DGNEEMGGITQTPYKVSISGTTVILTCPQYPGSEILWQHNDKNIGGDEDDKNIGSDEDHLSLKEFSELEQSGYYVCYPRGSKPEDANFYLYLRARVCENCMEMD

B1: anti-CD3 antibody mutant VH-Y61C (antibody, V domains shown)
VH: EVQLVESGGGLVQPGGSLRLSCAASGFTFSTYAMNWVRQAPGKGLEWVGRIRSKYNNYATCYADSVKDRFTISRDDSKNSLYLQMNSLKTEDTAVYYCARHGNFGNSYVSWFAYWGQGTLVTVSS
VL: QTVVTQEPSLTVSPGGTVTLTCRSSTGAVTTSNYANWVQQKPGQAPRGLIGGTNKRAPGVPARFSGSLLGDKAALTLLGAQPEDEAEYFCALWYSNLWVFGGGTKLTVL
notes: Cys point mutant of the humanized anti-CD3 antibody; also called VH-61
- Binding strength of mutants (EC50 mutant/EC50 wild-type) [1]: 5.1 fold

B2: anti-CD3 antibody mutant VL-K55C (antibody, V domains shown)
VH: EVQLVESGGGLVQPGGSLRLSCAASGFTFSTYAMNWVRQAPGKGLEWVGRIRSKYNNYATYYADSVKDRFTISRDDSKNSLYLQMNSLKTEDTAVYYCARHGNFGNSYVSWFAYWGQGTLVTVSS
VL: QTVVTQEPSLTVSPGGTVTLTCRSSTGAVTTSNYANWVQQKPGQAPRGLIGGTNCRAPGVPARFSGSLLGDKAALTLLGAQPEDEAEYFCALWYSNLWVFGGGTKLTVL
notes: Cys point mutant of the humanized anti-CD3 antibody; also called VL-55
- Binding strength of mutants (EC50 mutant/EC50 wild-type) [1]: 0.9 fold

B3: anti-CD3 antibody mutant VL-R56C (antibody, V domains shown)
VH: EVQLVESGGGLVQPGGSLRLSCAASGFTFSTYAMNWVRQAPGKGLEWVGRIRSKYNNYATYYADSVKDRFTISRDDSKNSLYLQMNSLKTEDTAVYYCARHGNFGNSYVSWFAYWGQGTLVTVSS
VL: QTVVTQEPSLTVSPGGTVTLTCRSSTGAVTTSNYANWVQQKPGQAPRGLIGGTNKCAPGVPARFSGSLLGDKAALTLLGAQPEDEAEYFCALWYSNLWVFGGGTKLTVL
notes: Cys point mutant of the humanized anti-CD3 antibody; also called VL-56
- Binding strength of mutants (EC50 mutant/EC50 wild-type) [1]: 1.5 fold

B4: anti-CD3 antibody mutant VH-D68C (antibody, V domains shown)
VH: EVQLVESGGGLVQPGGSLRLSCAASGFTFSTYAMNWVRQAPGKGLEWVGRIRSKYNNYATYYADSVKCRFTISRDDSKNSLYLQMNSLKTEDTAVYYCARHGNFGNSYVSWFAYWGQGTLVTVSS
VL: QTVVTQEPSLTVSPGGTVTLTCRSSTGAVTTSNYANWVQQKPGQAPRGLIGGTNKRAPGVPARFSGSLLGDKAALTLLGAQPEDEAEYFCALWYSNLWVFGGGTKLTVL
notes: Cys point mutant of the humanized anti-CD3 antibody; also called VH-68
- Binding strength of mutants (EC50 mutant/EC50 wild-type) [1]: 2 fold

B5: anti-CD3 antibody mutant VL-N54C (antibody, V domains shown)
VH: EVQLVESGGGLVQPGGSLRLSCAASGFTFSTYAMNWVRQAPGKGLEWVGRIRSKYNNYATYYADSVKDRFTISRDDSKNSLYLQMNSLKTEDTAVYYCARHGNFGNSYVSWFAYWGQGTLVTVSS
VL: QTVVTQEPSLTVSPGGTVTLTCRSSTGAVTTSNYANWVQQKPGQAPRGLIGGTCKRAPGVPARFSGSLLGDKAALTLLGAQPEDEAEYFCALWYSNLWVFGGGTKLTVL
notes: Cys point mutant of the humanized anti-CD3 antibody; also called VL-54
- Binding strength of mutants (EC50 mutant/EC50 wild-type) [1]: 1 fold

B6: anti-CD3 antibody mutant VH-S53C (antibody, V domains shown)
VH: EVQLVESGGGLVQPGGSLRLSCAASGFTFSTYAMNWVRQAPGKGLEWVGRIRCKYNNYATYYADSVKDRFTISRDDSKNSLYLQMNSLKTEDTAVYYCARHGNFGNSYVSWFAYWGQGTLVTVSS
VL: QTVVTQEPSLTVSPGGTVTLTCRSSTGAVTTSNYANWVQQKPGQAPRGLIGGTNKRAPGVPARFSGSLLGDKAALTLLGAQPEDEAEYFCALWYSNLWVFGGGTKLTVL
notes: Cys point mutant of the humanized anti-CD3 antibody; also called VH-53
- Binding strength of mutants (EC50 mutant/EC50 wild-type) [1]: 1.2 fold

B7: anti-CD3 antibody mutant VL-N96C (antibody, V domains shown)
VH: EVQLVESGGGLVQPGGSLRLSCAASGFTFSTYAMNWVRQAPGKGLEWVGRIRSKYNNYATYYADSVKDRFTISRDDSKNSLYLQMNSLKTEDTAVYYCARHGNFGNSYVSWFAYWGQGTLVTVSS
VL: QTVVTQEPSLTVSPGGTVTLTCRSSTGAVTTSNYANWVQQKPGQAPRGLIGGTNKRAPGVPARFSGSLLGDKAALTLLGAQPEDEAEYFCALWYSCLWVFGGGTKLTVL
notes: Cys point mutant of the humanized anti-CD3 antibody; also called VL-96
- Binding strength of mutants (EC50 mutant/EC50 wild-type) [1]: 1 fold

B8: anti-CD3 antibody mutant VH-M34C (antibody, V domains shown)
VH: EVQLVESGGGLVQPGGSLRLSCAASGFTFSTYACNWVRQAPGKGLEWVGRIRSKYNNYATYYADSVKDRFTISRDDSKNSLYLQMNSLKTEDTAVYYCARHGNFGNSYVSWFAYWGQGTLVTVSS
VL: QTVVTQEPSLTVSPGGTVTLTCRSSTGAVTTSNYANWVQQKPGQAPRGLIGGTNKRAPGVPARFSGSLLGDKAALTLLGAQPEDEAEYFCALWYSNLWVFGGGTKLTVL
notes: Cys point mutant of the humanized anti-CD3 antibody; also called VH-34
- Binding strength of mutants (EC50 mutant/EC50 wild-type) [1]: 1.1 fold

B9: anti-CD3 antibody mutant VH-D68C conjugated with Molecule I (+20K) (antibody, V domains shown)
VH: EVQLVESGGGLVQPGGSLRLSCAASGFTFSTYAMNWVRQAPGKGLEWVGRIRSKYNNYATYYADSVKCRFTISRDDSKNSLYLQMNSLKTEDTAVYYCARHGNFGNSYVSWFAYWGQGTLVTVSS
VL: QTVVTQEPSLTVSPGGTVTLTCRSSTGAVTTSNYANWVQQKPGQAPRGLIGGTNKRAPGVPARFSGSLLGDKAALTLLGAQPEDEAEYFCALWYSNLWVFGGGTKLTVL
modifications: Cys 68 conjugated with Molecule I (+20K)
notes: also called VH-68 D68 (+20K)
- Blocking fold after conjugation (+20K) [2]: 4 fold

B10: anti-CD3 antibody mutant VH-W111C (antibody, V domains shown)
VH: EVQLVESGGGLVQPGGSLRLSCAASGFTFSTYAMNWVRQAPGKGLEWVGRIRSKYNNYATYYADSVKDRFTISRDDSKNSLYLQMNSLKTEDTAVYYCARHGNFGNSYVSCFAYWGQGTLVTVSS
VL: QTVVTQEPSLTVSPGGTVTLTCRSSTGAVTTSNYANWVQQKPGQAPRGLIGGTNKRAPGVPARFSGSLLGDKAALTLLGAQPEDEAEYFCALWYSNLWVFGGGTKLTVL
notes: Cys point mutant of the humanized anti-CD3 antibody; also called VH-111
- Binding strength of mutants (EC50 mutant/EC50 wild-type) [1]: 2 fold

B11: anti-CD3 antibody mutant VH-F104C conjugated with Molecule I (+20K) (antibody, V domains shown)
VH: EVQLVESGGGLVQPGGSLRLSCAASGFTFSTYAMNWVRQAPGKGLEWVGRIRSKYNNYATYYADSVKDRFTISRDDSKNSLYLQMNSLKTEDTAVYYCARHGNCGNSYVSWFAYWGQGTLVTVSS
VL: QTVVTQEPSLTVSPGGTVTLTCRSSTGAVTTSNYANWVQQKPGQAPRGLIGGTNKRAPGVPARFSGSLLGDKAALTLLGAQPEDEAEYFCALWYSNLWVFGGGTKLTVL
modifications: Cys 104 conjugated with Molecule I (+20K)
notes: also called VH-104 F104 (+20K)
- Blocking fold after conjugation (+20K) [2]: 13 fold

B12: anti-CD3 antibody mutant VL-Y94C (antibody, V domains shown)
VH: EVQLVESGGGLVQPGGSLRLSCAASGFTFSTYAMNWVRQAPGKGLEWVGRIRSKYNNYATYYADSVKDRFTISRDDSKNSLYLQMNSLKTEDTAVYYCARHGNFGNSYVSWFAYWGQGTLVTVSS
VL: QTVVTQEPSLTVSPGGTVTLTCRSSTGAVTTSNYANWVQQKPGQAPRGLIGGTNKRAPGVPARFSGSLLGDKAALTLLGAQPEDEAEYFCALWCSNLWVFGGGTKLTVL
notes: Cys point mutant of the humanized anti-CD3 antibody; also called VL-94
- Binding strength of mutants (EC50 mutant/EC50 wild-type) [1]: 1 fold

B13: anti-CD3 antibody mutant VH-F112C (antibody, V domains shown)
VH: EVQLVESGGGLVQPGGSLRLSCAASGFTFSTYAMNWVRQAPGKGLEWVGRIRSKYNNYATYYADSVKDRFTISRDDSKNSLYLQMNSLKTEDTAVYYCARHGNFGNSYVSWCAYWGQGTLVTVSS
VL: QTVVTQEPSLTVSPGGTVTLTCRSSTGAVTTSNYANWVQQKPGQAPRGLIGGTNKRAPGVPARFSGSLLGDKAALTLLGAQPEDEAEYFCALWYSNLWVFGGGTKLTVL
notes: Cys point mutant of the humanized anti-CD3 antibody; also called VH-112
- Binding strength of mutants (EC50 mutant/EC50 wild-type) [1]: 1.2 fold

B14: anti-CD3 antibody mutant VL-Y34C (antibody, V domains shown)
VH: EVQLVESGGGLVQPGGSLRLSCAASGFTFSTYAMNWVRQAPGKGLEWVGRIRSKYNNYATYYADSVKDRFTISRDDSKNSLYLQMNSLKTEDTAVYYCARHGNFGNSYVSWFAYWGQGTLVTVSS
VL: QTVVTQEPSLTVSPGGTVTLTCRSSTGAVTTSNCANWVQQKPGQAPRGLIGGTNKRAPGVPARFSGSLLGDKAALTLLGAQPEDEAEYFCALWYSNLWVFGGGTKLTVL
notes: Cys point mutant of the humanized anti-CD3 antibody; also called VL-34
- Binding strength of mutants (EC50 mutant/EC50 wild-type) [1]: 1.2 fold

B15: anti-CD3 antibody mutant VH-M34C conjugated with Molecule I (+20K) (antibody, V domains shown)
VH: EVQLVESGGGLVQPGGSLRLSCAASGFTFSTYACNWVRQAPGKGLEWVGRIRSKYNNYATYYADSVKDRFTISRDDSKNSLYLQMNSLKTEDTAVYYCARHGNFGNSYVSWFAYWGQGTLVTVSS
VL: QTVVTQEPSLTVSPGGTVTLTCRSSTGAVTTSNYANWVQQKPGQAPRGLIGGTNKRAPGVPARFSGSLLGDKAALTLLGAQPEDEAEYFCALWYSNLWVFGGGTKLTVL
modifications: Cys 34 conjugated with Molecule I (+20K)
notes: also called VH-34 M34 (+20K)
- Blocking fold after conjugation (+20K) [2]: 5 fold

B16: anti-CD3 antibody mutant VH-F104C (antibody, V domains shown)
VH: EVQLVESGGGLVQPGGSLRLSCAASGFTFSTYAMNWVRQAPGKGLEWVGRIRSKYNNYATYYADSVKDRFTISRDDSKNSLYLQMNSLKTEDTAVYYCARHGNCGNSYVSWFAYWGQGTLVTVSS
VL: QTVVTQEPSLTVSPGGTVTLTCRSSTGAVTTSNYANWVQQKPGQAPRGLIGGTNKRAPGVPARFSGSLLGDKAALTLLGAQPEDEAEYFCALWYSNLWVFGGGTKLTVL
notes: Cys point mutant of the humanized anti-CD3 antibody; also called VH-104
- Binding strength of mutants (EC50 mutant/EC50 wild-type) [1]: 1 fold

B17: anti-CD3 antibody mutant VL-W93C (antibody, V domains shown)
VH: EVQLVESGGGLVQPGGSLRLSCAASGFTFSTYAMNWVRQAPGKGLEWVGRIRSKYNNYATYYADSVKDRFTISRDDSKNSLYLQMNSLKTEDTAVYYCARHGNFGNSYVSWFAYWGQGTLVTVSS
VL: QTVVTQEPSLTVSPGGTVTLTCRSSTGAVTTSNYANWVQQKPGQAPRGLIGGTNKRAPGVPARFSGSLLGDKAALTLLGAQPEDEAEYFCALCYSNLWVFGGGTKLTVL
notes: Cys point mutant of the humanized anti-CD3 antibody; also called VL-93
- Binding strength of mutants (EC50 mutant/EC50 wild-type) [1]: 1.8 fold

B18: anti-CD3 antibody mutant VH-S53C conjugated with Molecule I (+20K) (antibody, V domains shown)
VH: EVQLVESGGGLVQPGGSLRLSCAASGFTFSTYAMNWVRQAPGKGLEWVGRIRCKYNNYATYYADSVKDRFTISRDDSKNSLYLQMNSLKTEDTAVYYCARHGNFGNSYVSWFAYWGQGTLVTVSS
VL: QTVVTQEPSLTVSPGGTVTLTCRSSTGAVTTSNYANWVQQKPGQAPRGLIGGTNKRAPGVPARFSGSLLGDKAALTLLGAQPEDEAEYFCALWYSNLWVFGGGTKLTVL
modifications: Cys 53 conjugated with Molecule I (+20K)
notes: also called VH-53 S53 (+20K)
- Blocking fold after conjugation (+20K) [2]: 3 fold

B19: anti-CD3 antibody mutant VH-F112C conjugated with Molecule I (+20K) (antibody, V domains shown)
VH: EVQLVESGGGLVQPGGSLRLSCAASGFTFSTYAMNWVRQAPGKGLEWVGRIRSKYNNYATYYADSVKDRFTISRDDSKNSLYLQMNSLKTEDTAVYYCARHGNFGNSYVSWCAYWGQGTLVTVSS
VL: QTVVTQEPSLTVSPGGTVTLTCRSSTGAVTTSNYANWVQQKPGQAPRGLIGGTNKRAPGVPARFSGSLLGDKAALTLLGAQPEDEAEYFCALWYSNLWVFGGGTKLTVL
modifications: Cys 112 conjugated with Molecule I (+20K)
notes: also called VH-112 F112 (+20K)
- Blocking fold after conjugation (+20K) [2]: 4 fold
